What all share (settings): tags: N-terminal SV40 NLS, C-terminal XTEN linker + nucleoplasmin NLS
The target of data set [1] is T1, Nuclease A I67R (I67R).
T1 chain: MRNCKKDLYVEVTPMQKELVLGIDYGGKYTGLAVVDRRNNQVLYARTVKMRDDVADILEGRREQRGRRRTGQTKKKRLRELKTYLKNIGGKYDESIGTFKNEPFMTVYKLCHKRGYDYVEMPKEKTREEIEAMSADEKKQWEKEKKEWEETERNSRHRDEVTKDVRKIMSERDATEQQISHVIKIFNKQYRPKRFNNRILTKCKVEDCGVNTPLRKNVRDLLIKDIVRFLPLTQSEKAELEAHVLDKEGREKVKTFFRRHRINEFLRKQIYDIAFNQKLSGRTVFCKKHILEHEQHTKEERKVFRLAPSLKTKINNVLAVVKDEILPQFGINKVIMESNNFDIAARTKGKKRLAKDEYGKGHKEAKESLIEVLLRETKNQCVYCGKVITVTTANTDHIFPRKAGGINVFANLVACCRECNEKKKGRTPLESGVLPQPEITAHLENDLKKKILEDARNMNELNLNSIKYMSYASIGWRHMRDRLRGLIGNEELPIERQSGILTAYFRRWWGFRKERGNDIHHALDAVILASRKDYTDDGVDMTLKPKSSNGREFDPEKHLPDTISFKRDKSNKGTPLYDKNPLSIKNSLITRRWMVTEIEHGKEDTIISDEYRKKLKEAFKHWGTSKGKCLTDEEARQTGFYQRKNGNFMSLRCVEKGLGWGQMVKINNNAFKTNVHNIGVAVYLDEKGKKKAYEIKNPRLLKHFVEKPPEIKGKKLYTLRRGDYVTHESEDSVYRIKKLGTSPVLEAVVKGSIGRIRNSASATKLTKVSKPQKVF
Put plainly: cell_activity; PAM NGG; HEK293T.

Data set [2] has as its target T2, Nuclease A.
T2 chain: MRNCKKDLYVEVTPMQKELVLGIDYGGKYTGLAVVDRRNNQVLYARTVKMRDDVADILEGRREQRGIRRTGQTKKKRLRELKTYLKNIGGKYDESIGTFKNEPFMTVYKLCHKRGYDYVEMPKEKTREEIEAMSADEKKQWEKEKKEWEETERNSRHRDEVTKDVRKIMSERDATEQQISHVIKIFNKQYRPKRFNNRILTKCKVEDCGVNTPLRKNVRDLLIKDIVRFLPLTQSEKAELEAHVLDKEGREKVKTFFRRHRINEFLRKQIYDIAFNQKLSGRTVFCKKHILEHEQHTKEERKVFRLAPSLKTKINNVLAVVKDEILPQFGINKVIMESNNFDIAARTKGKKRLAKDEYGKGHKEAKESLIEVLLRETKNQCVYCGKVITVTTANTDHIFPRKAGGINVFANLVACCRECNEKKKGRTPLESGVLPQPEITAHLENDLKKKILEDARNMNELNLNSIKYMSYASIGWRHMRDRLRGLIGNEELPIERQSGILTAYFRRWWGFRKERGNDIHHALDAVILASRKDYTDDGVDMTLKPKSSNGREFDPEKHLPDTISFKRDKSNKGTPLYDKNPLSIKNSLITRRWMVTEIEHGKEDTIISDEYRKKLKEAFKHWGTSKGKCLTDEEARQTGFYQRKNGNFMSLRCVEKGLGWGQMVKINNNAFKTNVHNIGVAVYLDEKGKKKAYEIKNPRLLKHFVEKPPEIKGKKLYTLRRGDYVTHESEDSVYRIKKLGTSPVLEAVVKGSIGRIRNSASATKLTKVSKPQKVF
Put plainly: cell_activity; PAM NGG (AGG); HEK293T. As for the experimental part:
(§1) Approximately 16 hours prior to transfection, 25,000 HEK293T cells in DMEM/10% FBS+Pen/Strep (D10 media) were plated into each well of a 96-well plate. On the day of transfection, the cells were 50-90% confluent. For each well to be transfected, a mixture of Lipofectamine 2000™ (ThermoFisher Scientific) and Opti-MEM™ (ThermoFisher Scientific) was prepared and incubated at room temperature for 5 minutes (Solution 1). After incubation, the Lipofectamine 2000™: Opti-MEM™ mixture was added to a separate mixture containing the CRISPR nuclease plasmid (NLS-tagged), RNA guide plasmid, and Opti-MEM™ (Solution 2). In the case of negative controls, the CRISPR nuclease plasmid was excluded. Solutions 1 and 2 were mixed by pipetting up and down, then incubated at room temperature for 25 minutes. Following incubation, the Solution 1 and 2 mixture was added dropwise to each well of a 96-well plate containing the cells. Approximately 72 hours post transfection, cells were trypsinized by adding TrypLE™ (ThermoFisher Scientific) to the center of each well and incubating at 37° C. for approximately 5 minutes. D10 media was then added to each well and mixed to resuspend cells. The resuspended cells were centrifuged for 10 minutes to obtain a pellet, and the supernatant was discarded. The cell pellet was then resuspended in QuickExtract™ buffer (Lucigen®), and cells were incubated at 65° C. for 15 minutes, 68° C. for 15 minutes, and 98° C. for 10 minutes.
(§2) Each Nuclease A variant and RNA guide (see Table 5) was cloned as described in Example 2. HEK293T cells were further transfected, followed by NGS analysis, as described in Example 2. For each target, indel ratios, referring to the percentage of NGS reads comprising indels, were calculated for Nuclease A (SEQ ID NO: 1) and for each variant of Nuclease A. The indel ratios shown in Table 6 were calculated as the average of two bioreplicates, each of which contained two technical replicates.

Data set [3] deals with T3, Nuclease A I67R/D568R/E706R.
T3 chain: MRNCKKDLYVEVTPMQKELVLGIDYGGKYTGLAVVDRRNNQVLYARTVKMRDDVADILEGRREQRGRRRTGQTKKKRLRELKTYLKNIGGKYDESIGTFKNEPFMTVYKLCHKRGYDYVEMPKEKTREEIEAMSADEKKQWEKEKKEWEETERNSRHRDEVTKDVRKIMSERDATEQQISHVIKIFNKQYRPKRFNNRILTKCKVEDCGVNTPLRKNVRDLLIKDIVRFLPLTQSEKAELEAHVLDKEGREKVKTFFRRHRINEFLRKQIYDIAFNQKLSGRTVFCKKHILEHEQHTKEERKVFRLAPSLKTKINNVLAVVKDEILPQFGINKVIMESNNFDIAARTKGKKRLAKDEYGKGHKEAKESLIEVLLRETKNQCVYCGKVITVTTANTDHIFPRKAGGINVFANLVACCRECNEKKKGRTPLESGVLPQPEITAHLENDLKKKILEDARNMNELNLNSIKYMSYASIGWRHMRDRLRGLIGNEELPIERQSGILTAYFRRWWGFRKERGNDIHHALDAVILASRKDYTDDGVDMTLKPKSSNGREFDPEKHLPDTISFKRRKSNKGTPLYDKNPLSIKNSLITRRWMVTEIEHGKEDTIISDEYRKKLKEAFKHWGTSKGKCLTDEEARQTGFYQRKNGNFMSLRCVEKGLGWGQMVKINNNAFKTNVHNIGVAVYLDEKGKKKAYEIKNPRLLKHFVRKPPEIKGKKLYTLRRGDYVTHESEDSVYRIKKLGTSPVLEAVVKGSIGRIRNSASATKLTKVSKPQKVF
The experiment in a line: cell_activity; PAM NGG (AGG); HEK293T. As for the experimental part:
as §1, §2

B1: Nuclease A AAVS1-T3 guide ; AAVS1-T3 target (ssRNA ; dsDNA)
RNA: UUGUGAGAAUGGUGCGUCCUGUUACAGUUAAGGCUCUUUGGAAACAAAGAAGCCUUAAUUGUAAAACGCCUAUAUGGUAAAGUGAUGUACGUUUGGGUAUAUAUCGCCAGCCUGAACCUCUACGCCAGAAAUGGCAGCUUUAUCAUGGGUUAGGACGAUAUUUAAAAAACUUUCUGCGGCUUGCUUACUUUAGUAAGCUUUGUGGCUGAGGCAGAAUUCCUU
DNA 1: TTGTGAGAATGGTGCGTCCT
DNA 2: AGGACGCACCATTCTCACAA
In the case of B1, the binding signal in data set [1] is 7.07 fold vs Nuclease A. Also, the activity came out at 0.044 indel ratio in data set [2] and 0.37 indel ratio in data set [3].

B2: Nuclease A VEGFA-T6 guide ; VEGFA-T6 target (ssRNA ; dsDNA)
RNA: UUUGCCCAUACUGGGGACCAGUUACAGUUAAGGCUCUUUGGAAACAAAGAAGCCUUAAUUGUAAAACGCCUAUAUGGUAAAGUGAUGUACGUUUGGGUAUAUAUCGCCAGCCUGAACCUCUACGCCAGAAAUGGCAGCUUUAUCAUGGGUUAGGACGAUAUUUAAAAAACUUUCUGCGGCUUGCUUACUUUAGUAAGCUUUGUGGCUGAGGCAGAAUUCCUU
DNA 1: TTTGCCCATACTGGGGACCA
DNA 2: TGGTCCCCAGTATGGGCAAA
On to B2, for which, in data set [1], the binding signal came out at 4.43 fold vs Nuclease A. The activity in data set [2] worked out at 0.049 indel ratio; in data set [3], 0.325 indel ratio.

The record behind these values is patent US20260275311, “CRISPR NUCLEASE POLYPEPTIDES AND GENE EDITING SYSTEMS COMPRISING SUCH” (ARBOR BIOTECHNOLOGIES, INC., published 2026).
